In article PMC9482650, “Quantitative fragmentomics allow affinity mapping of interactomes” (Nature Communications, 2022):

Tests used:
Assay in all cases: holdup assay
Design in all cases: key: below the threshold = too weak to quantify, mostly under pKd 3.1 to 4
Details in all cases: plain residues with an end cap or a label only (N-terminal biotin on a linker: ado-ado)
FRMPD1, Q5SYB0 = target: T1, FRMPD1, Q5SYB0
T1 sequence (Q5SYB0 52-145, limits assumed, looked up): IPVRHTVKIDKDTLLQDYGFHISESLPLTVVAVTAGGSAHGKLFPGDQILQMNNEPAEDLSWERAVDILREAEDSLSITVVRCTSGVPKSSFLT

MAGI2_5, Q86UL8 = target: MAGI2_5, Q86UL8
Chain of MAGI2_5, Q86UL8 (Q86UL8 915-1017): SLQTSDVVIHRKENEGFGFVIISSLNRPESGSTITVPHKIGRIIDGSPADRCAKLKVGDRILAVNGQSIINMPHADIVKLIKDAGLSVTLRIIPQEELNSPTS

LNX2_3, Q8N448 = target: T2, LNX2_3, Q8N448
T2 sequence (Q8N448 463-564, limits assumed, looked up): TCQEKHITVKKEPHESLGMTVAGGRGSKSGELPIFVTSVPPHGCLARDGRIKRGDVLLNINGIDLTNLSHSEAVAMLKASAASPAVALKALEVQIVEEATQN

HTRA4, P83105 = target: T3, HTRA4, P83105
T3 sequence (P83105 378-476, limits assumed, looked up): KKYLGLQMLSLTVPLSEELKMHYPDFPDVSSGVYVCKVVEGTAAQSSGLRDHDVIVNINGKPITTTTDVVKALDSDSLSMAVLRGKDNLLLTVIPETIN

LIN7B, Q9HAP6 = target: T4, LIN7B, Q9HAP6
T4 sequence (Q9HAP6 88-185, limits assumed, looked up): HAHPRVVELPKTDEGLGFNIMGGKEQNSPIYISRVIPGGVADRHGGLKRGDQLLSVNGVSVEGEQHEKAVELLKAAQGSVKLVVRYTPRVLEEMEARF

LIN7C, Q9NUP9 = target: T5, LIN7C, Q9NUP9
T5 sequence (Q9NUP9 88-185, limits assumed, looked up): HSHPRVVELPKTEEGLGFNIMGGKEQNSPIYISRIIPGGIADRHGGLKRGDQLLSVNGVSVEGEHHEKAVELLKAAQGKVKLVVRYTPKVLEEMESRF

NHERF4_4, Q86UT5 = target: NHERF4_4, Q86UT5
Chain of NHERF4_4, Q86UT5 (Q86UT5 464-550): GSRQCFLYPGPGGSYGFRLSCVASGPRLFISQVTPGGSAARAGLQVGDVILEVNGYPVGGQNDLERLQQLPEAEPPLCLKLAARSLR

FRMPD2_1, Q68DX3 = target: FRMPD2_1, Q68DX3
Chain of FRMPD2_1, Q68DX3 (Q68DX3 770-861): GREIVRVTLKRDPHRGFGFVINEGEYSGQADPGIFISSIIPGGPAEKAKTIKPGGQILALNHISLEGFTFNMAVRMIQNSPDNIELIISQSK

PDZD7_3, Q9H5P4 = target: T6, PDZD7_3, Q9H5P4
T6 sequence (Q9H5P4 857-944, limits assumed, looked up): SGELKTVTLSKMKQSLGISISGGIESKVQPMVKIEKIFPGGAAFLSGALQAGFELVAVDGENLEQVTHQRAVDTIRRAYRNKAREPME

LNX1_3, Q8TBB1 = target: LNX1_3, Q8TBB1
Chain of LNX1_3, Q8TBB1 (Q8TBB1 500-596): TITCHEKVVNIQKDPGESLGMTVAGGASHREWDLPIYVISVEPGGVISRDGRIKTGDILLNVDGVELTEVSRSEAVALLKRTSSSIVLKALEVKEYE

MPP2, Q14168 = target: T7, MPP2, Q14168
T7 sequence (Q14168 180-250, limits assumed, looked up): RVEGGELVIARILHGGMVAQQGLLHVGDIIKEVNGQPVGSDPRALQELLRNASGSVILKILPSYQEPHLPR

Inadl_8, Q8NI35 = target: Inadl_8, Q8NI35
Chain of Inadl_8, Q8NI35 (Q8NI35 1425-1530): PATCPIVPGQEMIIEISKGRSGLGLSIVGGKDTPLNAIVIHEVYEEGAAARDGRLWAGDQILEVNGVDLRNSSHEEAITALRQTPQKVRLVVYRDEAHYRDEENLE

GRID2IP_1, A4D2P6 = target: GRID2IP_1, A4D2P6
Chain of GRID2IP_1, A4D2P6 (A4D2P6 1-87): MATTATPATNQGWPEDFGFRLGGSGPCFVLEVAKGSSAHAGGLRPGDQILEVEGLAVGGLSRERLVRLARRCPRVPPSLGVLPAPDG

IL16_4, Q14005 = target: IL16_4, Q14005
Chain of IL16_4, Q14005 (Q14005 1229-1329): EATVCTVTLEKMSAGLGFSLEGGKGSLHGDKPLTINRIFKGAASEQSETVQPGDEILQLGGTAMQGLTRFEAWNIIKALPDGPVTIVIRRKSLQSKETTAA

AHNAK1, Q09666 = target: AHNAK1, Q09666
Chain of AHNAK1, Q09666 (Q09666 4-100): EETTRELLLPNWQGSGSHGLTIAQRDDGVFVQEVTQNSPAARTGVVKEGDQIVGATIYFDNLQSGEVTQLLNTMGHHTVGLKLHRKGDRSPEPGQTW

NHERF4_1, Q86UT5-2 = target: NHERF4_1, Q86UT5-2
Chain of NHERF4_1, Q86UT5-2 (Q86UT5 other isoform, or with tags, fused parts or gaps): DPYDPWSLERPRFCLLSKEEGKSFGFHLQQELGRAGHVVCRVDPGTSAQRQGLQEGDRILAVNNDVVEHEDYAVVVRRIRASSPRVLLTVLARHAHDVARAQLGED

Inadl_1, Q8NI35 = target: Inadl_1, Q8NI35
Chain of Inadl_1, Q8NI35 (Q8NI35 113-229): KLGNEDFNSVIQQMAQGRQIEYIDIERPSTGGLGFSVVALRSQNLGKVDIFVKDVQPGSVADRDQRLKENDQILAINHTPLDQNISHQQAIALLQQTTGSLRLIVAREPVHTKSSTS

ARHGAP21, Q5T5U3 = target: T8, ARHGAP21, Q5T5U3
T8 sequence (Q5T5U3 45-169, limits assumed, looked up): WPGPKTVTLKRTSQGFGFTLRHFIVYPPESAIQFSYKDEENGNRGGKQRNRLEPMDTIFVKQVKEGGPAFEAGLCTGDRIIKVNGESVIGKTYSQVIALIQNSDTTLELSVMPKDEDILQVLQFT

FRMPD2_2, Q68DX3 = target: FRMPD2_2, Q68DX3
Chain of FRMPD2_2, Q68DX3 (Q68DX3 944-1038): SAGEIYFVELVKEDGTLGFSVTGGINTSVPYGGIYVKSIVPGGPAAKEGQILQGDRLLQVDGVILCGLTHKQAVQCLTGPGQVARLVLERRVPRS

MAST2, Q6P0Q8 = target: MAST2, Q6P0Q8
Chain of MAST2, Q6P0Q8 (Q6P0Q8 1099-1202): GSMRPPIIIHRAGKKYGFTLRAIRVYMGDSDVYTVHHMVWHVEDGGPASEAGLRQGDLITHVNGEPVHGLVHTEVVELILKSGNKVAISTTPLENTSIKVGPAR

GRIP1_4, Q9Y3R0 = target: T9, GRIP1_4, Q9Y3R0
T9 sequence (Q9Y3R0 467-571, limits assumed, looked up): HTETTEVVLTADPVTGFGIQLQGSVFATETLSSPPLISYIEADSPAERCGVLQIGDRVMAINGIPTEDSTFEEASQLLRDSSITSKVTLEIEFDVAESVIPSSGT

DLG4_2, P78352 = target: DLG4_2, P78352
Chain of DLG4_2, P78352 (P78352 155-259): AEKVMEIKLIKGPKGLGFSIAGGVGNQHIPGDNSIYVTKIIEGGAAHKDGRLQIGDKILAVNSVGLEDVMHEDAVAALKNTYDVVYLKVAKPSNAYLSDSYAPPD

Inadl_3, Q8NI35 = target: Inadl_3, Q8NI35
Chain of Inadl_3, Q8NI35 (Q8NI35 359-469): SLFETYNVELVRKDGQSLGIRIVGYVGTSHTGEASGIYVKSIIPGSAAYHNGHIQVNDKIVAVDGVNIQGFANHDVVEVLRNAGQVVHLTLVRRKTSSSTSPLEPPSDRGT

Inadl_9, Q8NI35 = target: Inadl_9, Q8NI35
Chain of Inadl_9, Q8NI35 (Q8NI35 1530-1615): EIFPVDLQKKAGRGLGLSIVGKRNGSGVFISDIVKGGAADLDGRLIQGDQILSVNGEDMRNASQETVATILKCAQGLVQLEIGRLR

CARD11, Q9BXL7 = target: T10, CARD11, Q9BXL7
T10 sequence (Q9BXL7 662-765, limits assumed, looked up): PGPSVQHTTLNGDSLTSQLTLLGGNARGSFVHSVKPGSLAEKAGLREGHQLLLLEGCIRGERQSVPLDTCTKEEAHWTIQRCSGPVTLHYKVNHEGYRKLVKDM

Inadl_6, Q8NI35 = target: Inadl_6, Q8NI35
Chain of Inadl_6, Q8NI35 (Q8NI35 1058-1167): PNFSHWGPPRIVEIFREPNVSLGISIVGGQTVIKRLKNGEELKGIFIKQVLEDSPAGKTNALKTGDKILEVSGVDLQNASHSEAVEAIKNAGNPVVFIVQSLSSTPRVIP

PDZD2_2, O15018 = target: T11, PDZD2_2, O15018
T11 sequence (O15018 329-429, limits assumed, looked up): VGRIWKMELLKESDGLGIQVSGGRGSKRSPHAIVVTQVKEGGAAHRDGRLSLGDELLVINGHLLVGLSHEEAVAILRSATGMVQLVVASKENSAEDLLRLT

## PSDSVGKDVF [EGLN1, Q9GZT9]
FRMPD1, Q5SYB0
  pKd: below the threshold
MAGI2_5, Q86UL8
  pKd: below the threshold
LNX2_3, Q8N448
  pKd: below the threshold
HTRA4, P83105
  pKd: below the threshold
LIN7B, Q9HAP6
  pKd: 3.55
LIN7C, Q9NUP9
  pKd: below the threshold
NHERF4_4, Q86UT5
  pKd: below the threshold
FRMPD2_1, Q68DX3
  pKd: below the threshold
PDZD7_3, Q9H5P4
  pKd: below the threshold
LNX1_3, Q8TBB1
  pKd: below the threshold
MPP2, Q14168
  pKd: below the threshold
Inadl_8, Q8NI35
  pKd: below the threshold
GRID2IP_1, A4D2P6
  pKd: below the threshold
IL16_4, Q14005
  pKd: 3.63
AHNAK1, Q09666
  pKd: below the threshold
NHERF4_1, Q86UT5-2
  pKd: below the threshold
Inadl_1, Q8NI35
  pKd: below the threshold
ARHGAP21, Q5T5U3
  pKd: 3.47
FRMPD2_2, Q68DX3
  pKd: below the threshold
MAST2, Q6P0Q8
  pKd: below the threshold
GRIP1_4, Q9Y3R0
  pKd: below the threshold
DLG4_2, P78352
  pKd: below the threshold
Inadl_3, Q8NI35
  pKd: below the threshold
Inadl_9, Q8NI35
  pKd: below the threshold
CARD11, Q9BXL7
  pKd: below the threshold
Inadl_6, Q8NI35
  pKd: below the threshold
PDZD2_2, O15018
  pKd: 3.62

## THREVKFTSL [CD46, P15529]
FRMPD1, Q5SYB0
  pKd: below the threshold
MAGI2_5, Q86UL8
  pKd: 3.84
LNX2_3, Q8N448
  pKd: below the threshold
HTRA4, P83105
  pKd: below the threshold
LIN7B, Q9HAP6
  pKd: 3.88
LIN7C, Q9NUP9
  pKd: below the threshold
NHERF4_4, Q86UT5
  pKd: below the threshold
FRMPD2_1, Q68DX3
  pKd: below the threshold
PDZD7_3, Q9H5P4
  pKd: 4.75
LNX1_3, Q8TBB1
  pKd: below the threshold
MPP2, Q14168
  pKd: below the threshold
Inadl_8, Q8NI35
  pKd: 3.53
GRID2IP_1, A4D2P6
  pKd: below the threshold
IL16_4, Q14005
  pKd: 3.88
AHNAK1, Q09666
  pKd: below the threshold
NHERF4_1, Q86UT5-2
  pKd: 4.28
Inadl_1, Q8NI35
  pKd: below the threshold
ARHGAP21, Q5T5U3
  pKd: below the threshold
FRMPD2_2, Q68DX3
  pKd: below the threshold
MAST2, Q6P0Q8
  pKd: 5.57
GRIP1_4, Q9Y3R0
  pKd: below the threshold
DLG4_2, P78352
  pKd: 3.7
Inadl_3, Q8NI35
  pKd: below the threshold
Inadl_9, Q8NI35
  pKd: below the threshold
CARD11, Q9BXL7
  pKd: below the threshold
Inadl_6, Q8NI35
  pKd: 3.7
PDZD2_2, O15018
  pKd: 4.26

## QKNKDREYYV [NRXN3, Q9HDB5]
FRMPD1, Q5SYB0
  pKd: below the threshold
MAGI2_5, Q86UL8
  pKd: below the threshold
LNX2_3, Q8N448
  pKd: below the threshold
HTRA4, P83105
  pKd: below the threshold
LIN7B, Q9HAP6
  pKd: below the threshold
LIN7C, Q9NUP9
  pKd: 3.59
NHERF4_4, Q86UT5
  pKd: below the threshold
FRMPD2_1, Q68DX3
  pKd: 3.7
PDZD7_3, Q9H5P4
  pKd: below the threshold
LNX1_3, Q8TBB1
  pKd: 4.09
MPP2, Q14168
  pKd: 4.39
Inadl_8, Q8NI35
  pKd: 3.48
GRID2IP_1, A4D2P6
  pKd: below the threshold
IL16_4, Q14005
  pKd: below the threshold
AHNAK1, Q09666
  pKd: below the threshold
NHERF4_1, Q86UT5-2
  pKd: below the threshold
Inadl_1, Q8NI35
  pKd: 3.69
ARHGAP21, Q5T5U3
  pKd: 4.2
FRMPD2_2, Q68DX3
  pKd: 3.78
MAST2, Q6P0Q8
  pKd: 3.77
GRIP1_4, Q9Y3R0
  pKd: below the threshold
DLG4_2, P78352
  pKd: 3.67
Inadl_3, Q8NI35
  pKd: 4.14
Inadl_9, Q8NI35
  pKd: 4.56
CARD11, Q9BXL7
  pKd: below the threshold
Inadl_6, Q8NI35
  pKd: below the threshold
PDZD2_2, O15018
  pKd: 4.56

## KAEEKPPSKV [SCN4B, Q8IWT1]
FRMPD1, Q5SYB0
  pKd: below the threshold
MAGI2_5, Q86UL8
  pKd: 3.51
LNX2_3, Q8N448
  pKd: below the threshold
HTRA4, P83105
  pKd: 3.93
LIN7B, Q9HAP6
  pKd: below the threshold
LIN7C, Q9NUP9
  pKd: below the threshold
NHERF4_4, Q86UT5
  pKd: below the threshold
FRMPD2_1, Q68DX3
  pKd: below the threshold
PDZD7_3, Q9H5P4
  pKd: below the threshold
LNX1_3, Q8TBB1
  pKd: below the threshold
MPP2, Q14168
  pKd: below the threshold
Inadl_8, Q8NI35
  pKd: 3.98
GRID2IP_1, A4D2P6
  pKd: below the threshold
IL16_4, Q14005
  pKd: 3.65
AHNAK1, Q09666
  pKd: below the threshold
NHERF4_1, Q86UT5-2
  pKd: below the threshold
Inadl_1, Q8NI35
  pKd: below the threshold
ARHGAP21, Q5T5U3
  pKd: below the threshold
FRMPD2_2, Q68DX3
  pKd: below the threshold
MAST2, Q6P0Q8
  pKd: below the threshold
GRIP1_4, Q9Y3R0
  pKd: below the threshold
DLG4_2, P78352
  pKd: below the threshold
Inadl_3, Q8NI35
  pKd: below the threshold
Inadl_9, Q8NI35
  pKd: 3.8
CARD11, Q9BXL7
  pKd: below the threshold
Inadl_6, Q8NI35
  pKd: below the threshold
PDZD2_2, O15018
  pKd: 3.95

## HDDYFYHDEL [RCN2, Q14257]
FRMPD1, Q5SYB0
  pKd: below the threshold
MAGI2_5, Q86UL8
  pKd: below the threshold
LNX2_3, Q8N448
  pKd: below the threshold
HTRA4, P83105
  pKd: below the threshold
LIN7B, Q9HAP6
  pKd: below the threshold
LIN7C, Q9NUP9
  pKd: below the threshold
NHERF4_4, Q86UT5
  pKd: below the threshold
FRMPD2_1, Q68DX3
  pKd: below the threshold
PDZD7_3, Q9H5P4
  pKd: below the threshold
LNX1_3, Q8TBB1
  pKd: below the threshold
MPP2, Q14168
  pKd: below the threshold
Inadl_8, Q8NI35
  pKd: below the threshold
GRID2IP_1, A4D2P6
  pKd: below the threshold
IL16_4, Q14005
  pKd: below the threshold
AHNAK1, Q09666
  pKd: below the threshold
NHERF4_1, Q86UT5-2
  pKd: 4.1
Inadl_1, Q8NI35
  pKd: below the threshold
ARHGAP21, Q5T5U3
  pKd: 4.17
FRMPD2_2, Q68DX3
  pKd: below the threshold
MAST2, Q6P0Q8
  pKd: 4.85
GRIP1_4, Q9Y3R0
  pKd: below the threshold
DLG4_2, P78352
  pKd: below the threshold
Inadl_3, Q8NI35
  pKd: 3.85
Inadl_9, Q8NI35
  pKd: below the threshold
CARD11, Q9BXL7
  pKd: below the threshold
Inadl_6, Q8NI35
  pKd: below the threshold
PDZD2_2, O15018
  pKd: below the threshold
